Measured values published in the Human Domainome abundance scans (Beltran et al. 2025).

B1: Retinoic acid receptor RXR-alpha, residues 132 to 208; numbered along this chain, P19793 (parent)
chain: KHICAICGDRSSGKHYGVYSCEGCKGFFKRTVRKDLTYTCRDNKDCLIDKRQRNRCQYCRYQKCLAMGMKREAVQEE

Variants of: B1
Test: abundance fitness (aPCA) (normalised: wild type 0, dead -1); higher = more abundant; growth selection in yeast, the domain comes from the species named
Conditions: Homo sapiens

Abundance fitness, by site and new letter:
R41: D 0.056 | T 0.035 | W -0.007 | C 0.096 | Q 0.041 | L -0.091 | I 0.041 | M 0.018 | Y -0.002 | V -0.01 | P 0.059 | H 0.06 | F 0.032 | G 0.095 | N -0.05 | K 0.026 | E 0.14
C56: S -0.293 | Y -0.431
D42: N 0.02 | G 0.091
C59: Y -0.418 | V -0.915 | E -0.59 | K -1.05 | W -0.427 | F -1.05 | P -0.753 | H -0.066 | N -1.13 | I -0.977 | A -0.748 | T -0.651 | D -0.647 | G -0.861 | M -1.08 | R -0.955 | L -0.911 | S -0.657
T37: N 0.001 | A 0.026 | V 0.035 | K 0.066 | Q 0.059 | Y -0.082 | M -0.147 | S -0.025 | F -0.046 | E 0.052 | I -0.016 | L -0.05 | H 0.053 | C 0.074 | D 0.082 | W -0.051 | G 0.047 | P 0.064 | R -0.039
Q57: C -0.037 | N -0.052 | V -0.04 | D 0.05 | W -0.026 | I -0.167 | R 0.003 | K -0.113 | Y -0.065 | P 0.032 | G 0.03 | E -0.045 | T -0.065 | L -0.016
N43: P -0.065 | K 0.1 | S 0.019 | Q -0.099 | W -0.008 | M 0.02 | A 0.008 | F -0.071 | G 0.053 | D -0.181 | E 0.053 | T 0.049 | R -0.003 | Y -0.043 | L -0.009 | I 0.019 | H 0.066 | C -0.115 | V 0.013
N54: H 0.117 | S -0.167 | D -0.128 | Y -0.061
K44: A 0.001 | T 0.057 | M -0.03 | S -0.011 | G 0.052 | E -0.033 | V -0.035 | P -0.022 | H -0.086 | Y -0.119 | F -0.024 | N 0.025 | L -0.083 | I 0.05 | R -0.019 | C -0.025 | Q -0.04 | D 0.092
D49: A 0.009 | S -0.037 | G 0.07 | W 0.06 | C -0.117 | Y -0.183 | H -0.011 | Q 0.036 | I 0.069 | K 0.026 | N 0.048 | P -0.018 | R -0.183 | T -0.07 | F -0.109 | V 0.036 | E -0.005 | L -0.102
K50: G 0.015 | F -0.008 | V 0.052 | C -0.153 | M 0.043 | W -0.107 | P -0.029 | N 0.124 | Q 0.047 | H -0.029 | D 0.019 | Y -0.092 | I -0.026 | T -0.099 | S -0.108 | A 0.037 | E -0.077 | R -0.026
Y58: M -0.062 | P -0.294 | H 0.09 | S 0 | D 0.045 | G -0.028 | F -0.02 | E 0.043 | V -0.311 | T -0.328 | N -0.087 | K 0.024 | R -0.032 | I -0.551 | A -0.007 | C -0.066
D45: R 0.001 | I -0.123 | W -0.025 | V -0.021 | C -0.049 | N -0.034 | K 0.058 | M -0.404 | S -0.029 | T -0.051 | P -0.078 | Y -0.062 | L -0.062 | F -0.104 | H -0.066 | E 0.043
Y38: W -0.086 | F 0.078 | R -0.11 | H 0.027 | I -0.041 | L 0.012 | D -0.115 | P 0.04 | N -0.101 | Q -0.041 | V 0.001 | C -0.353 | T 0.036 | S -0.031 | E -0.063 | A -0.061
L47: Q -0.095 | S -0.122 | P -0.045 | E 0.004 | A 0.005 | R -0.109 | Y -0.03 | T 0.012 | H -0.016 | V -0.008 | N -0.098 | W 0.005 | K -0.062 | G 0.016 | I -0.002 | D -0.072 | M -0.048 | F 0.011
L65: A -0.038 | H -0.078 | C 0.044 | G -0.148 | D -0.133 | F -0.036 | I -0.132
C64: Y -0.421
I48: Q 0.21 | L 0.016 | E -0.162 | N 0.065 | M 0.03 | R -0.02 | S -0.04 | P -0.007 | F -0.108 | Y -0.342 | H 0.061 | G -0.007 | K 0.094 | V 0.051 | C -0.035 | D -0.031 | W 0.007 | A -0.05 | T 0
R53: N 0.03 | Y 0.007 | C -0.063 | G -0.009 | W 0.006 | P 0.027 | S -0.076 | H 0.015 | F -0.044 | L -0.041 | M -0.065 | A -0.008 | E 0.061 | D 0.002 | Q -0.028 | I 0.014 | T 0.063
Y61: N 0.101 | C -0.06 | H -0.08
R51: H -0.052 | K 0.082 | W -0.038 | C -0.053 | P 0.045 | D -0.073 | M -0.025 | L 0.022 | S 0.017 | E -0.005 | I -0.001 | Q -0.015 | T 0.022 | G 0.015 | N -0.071 | V -0.035 | A 0.007
C46: R -0.301 | F -0.291 | N -0.22 | Q -0.288 | Y -0.383 | S -0.274 | K -0.207 | I -0.436 | A -0.142 | G -0.186 | L -0.378 | M -0.206 | P -0.155 | D -0.035 | E -0.189 | V -0.193
L36: V 0.009 | T -0.028 | W -0.028 | Y -0.055 | R 0.008
C40: D -0.314 | H -0.09 | W -0.832 | P -0.591 | G -0.815 | R -0.659 | I -0.697 | A -0.602 | N -0.732 | L -0.454 | Q -0.707 | E -0.405 | V -0.737 | T -0.643 | M -0.621 | K -0.504
T39: E 0.048 | I 0.099 | C 0.04 | P 0.027 | Y 0.006 | Q -0.033 | L -0.052 | H 0.134 | W -0.009 | M 0.046 | A -0.015 | R 0.008 | G 0.045 | N 0.03 | S 0.03 | K 0.027 | V 0.05 | D 0.045
